{"source": "patent US20260008822A1", "about": "(RECOURSE BIOLOGICS, published 2026)", "biological_target": "T1, E0 (EGFR-OMCP bispecific fusion protein: cetuximab scFv - (GGGGS)3 linker - OMCP - His8 tag)", "T1 construct": "also called OMCP-EGFR; OMCP-EGFR scFv", "assay": "SPR (ProteOn XPR36), human NKG2D amine-coupled to the chip, bispecific as analyte, 1:1 Langmuir fit", "data": [{"binder": "human NKG2D (receptor, UniProt P26718 78-216, looked up) FLNSLFNQEVQIPLTESYCGPCPKNWICYKNNCYQFFDESKNWYESQASCMSQNASLLKVYSKEDQDLLKLVKSYHWMGLVHIPTNGSWQWEDGSILSPNLLTIIEMQKGDCALYASSFKGYIENCSTPNTYICMQRTV", "values": [{"measurement": "Kd", "result": 0.17, "unit": "nM"}]}]}
